B1: IgG1-F77 (antibody)
heavy: QVQLQESGPGLVKPSETLSLTCAVSGHSISHDHAWSWVRQPPGEGLEWIGFISYSGITNYNPSLQGRVTISRDNSKNTLYLQMNSLRAEDTAVYYCARSLARTTAMDYWGEGTLVTVSSASTKGPSVFPLAPSSKSTSGGTAALGCLVKDYFPEPVTVSWNSGALTSGVHTFPAVLQSSGLYSLSSVVTVPSSSLGTQTYICNVNHKPSNTKVDKKVEPKSCDKTHTCPPCPAPELLGGPSVFLFPPKPKDTLMISREPEVTCVVVDVSHEDPEVKFNWYVDGVEVHNAKTKPREEQYNSTYRVVSVLTVLHQDWLNGKEYKCKVSNKALPAPIEKTISKAKGQPREPQVYTLPPSRDELTKNQVSLTCLVKGFYPSDIAVEWESNGQPENNYKTTPPVLDSDGSFFLYSKLTVDKSRWQQGNVFSCSVLHEALHYHYTQKSLSLSP
light: not shown
notes: EU numbering; copies: 2 + 2
B2: IgG1-F94 (antibody)
heavy: B1 heavy with E258T, P259L
light: not shown
notes: copies: 2 + 2
B3: IgG1-F93 (antibody)
heavy: B1 heavy with M254W, E258T, Y436W
light: not shown
notes: copies: 2 + 2
B4: IgG1-F101 (antibody)
heavy: B1 heavy with M254W, E258Q, P259L, L430M
light: not shown
notes: EU numbering; copies: 2 + 2
B5: IgG1-F78 (antibody)
heavy: B1 heavy with S256T, E258T, Y436W
light: not shown
notes: EU numbering; copies: 2 + 2
B6: IgG1-F95 (antibody)
heavy: B1 heavy with M254Y, S256T, Y436F
light: not shown
notes: EU numbering; copies: 2 + 2
B7: IgG1-F81 (antibody)
heavy: B1 heavy with M254Y, L430M, Y436A
light: not shown
notes: EU numbering; copies: 2 + 2
B8: IgG1-F89 (antibody)
heavy: B1 heavy with M254Y, S256T, E258Q, L430M
light: not shown
notes: EU numbering; copies: 2 + 2
B9: IgG1-F88 (antibody)
heavy: B1 heavy with M254Y, S256T, E258Q, L430M, Y436W
light: not shown
notes: EU numbering; copies: 2 + 2
B10: IgG1-F80 (antibody)
heavy: B1 heavy with M254Y, E258Q, L430M, Y436A
light: not shown
notes: EU numbering; copies: 2 + 2
B11: IgG1-F91 (antibody)
heavy: B1 heavy with M254Y, E258T, V310P
light: not shown
notes: EU numbering; copies: 2 + 2
B12: IgG1-F87 (antibody)
heavy: B1 heavy with S256T, E258Q, L430M
light: not shown
notes: EU numbering; copies: 2 + 2
B13: IgG1-F86 (antibody)
heavy: B1 heavy with S256T, E258Q, L430M, Y436W
light: not shown
notes: EU numbering; copies: 2 + 2
B14: IgG1-F90 (antibody)
heavy: B1 heavy with M254Y, V310P, L430M, Y436W
light: not shown
notes: EU numbering; copies: 2 + 2
B15: IgG1-F103 (antibody)
heavy: B1 heavy with P240A, M254Y, E258T, V310P, L430M
light: not shown
notes: EU numbering; copies: 2 + 2
B16: IgG1-F85 (antibody)
heavy: B1 heavy with M254W, E258Q, L430M
light: not shown
notes: EU numbering; copies: 2 + 2
B17: IgG1-F84 (antibody)
heavy: B1 heavy with M254W, E258Q, L430M, Y436W
light: not shown
notes: EU numbering; copies: 2 + 2
B18: IgG1-F92 (antibody)
heavy: B1 heavy with M254Y, S256T, V310P, Y436W
light: not shown
notes: EU numbering; copies: 2 + 2
B19: IgG1-F99 (antibody)
heavy: B1 heavy with M254Y, L430M, Y436H
light: not shown
notes: EU numbering; copies: 2 + 2
B20: IgG1-F104 (antibody)
heavy: B1 heavy with M254Y, E258T, D267A, V310P, L430M
light: not shown
notes: EU numbering; copies: 2 + 2

Data on 20 molecules can be found in US20200199241A1 (Chugai, published 2020).

Usually Kd stands for a measure of binding affinity in units of concentration. High values mean weaker binding, low ones tighter binding.

Numbering of substitutions follows the chain as printed.

T1 sequence (chain, as listed by the source limits assumed, chain 1 of 2): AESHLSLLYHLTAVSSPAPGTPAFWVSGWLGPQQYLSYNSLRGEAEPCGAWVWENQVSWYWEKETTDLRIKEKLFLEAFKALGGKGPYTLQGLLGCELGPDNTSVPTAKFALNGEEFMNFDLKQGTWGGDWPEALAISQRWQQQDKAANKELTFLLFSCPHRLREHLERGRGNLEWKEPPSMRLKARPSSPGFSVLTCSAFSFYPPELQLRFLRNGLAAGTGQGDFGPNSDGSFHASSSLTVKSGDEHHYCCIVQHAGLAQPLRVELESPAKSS
T1 sequence (P61769 21-119 limits assumed, chain 2 of 2): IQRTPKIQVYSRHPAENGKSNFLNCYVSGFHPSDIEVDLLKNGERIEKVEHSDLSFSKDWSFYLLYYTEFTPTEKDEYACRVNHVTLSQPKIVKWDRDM

The experiment has as its target T1, human FcRn (soluble human FcRn complexed with β2-microglobulin) (human, UniProt P61769 21-119, limits assumed).
T1 construct: also called hFcRn
In words: SPR, pH 7.0.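 Also: antibodies captured on a Protein L sensor chip with human FcRn injected as analyte, KD calculated from fitted association and dissociation rate constants.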
On to B1, for which binding was characterised by a dissociation constant (Kd) of 990 nM. This counts as sub-micromolar.
In the case of B2 it was 370 nM; in that of B3, 740 nM.
B4 registered an equilibrium dissociation constant (Kd) of 110 nM. This Kd lies about 6.7-fold lower than the previous one.
With B5, the equilibrium dissociation constant (Kd) came out at 780 nM.
Molecule B6 registered a dissociation constant Kd of 260 nM.
In the case of B7 it was 1600 nM; in that of B8, 360 nM.
Molecule B9 gave an equilibrium dissociation constant (Kd) of 190 nM.
To B10 belongs 2700 nM.
Molecule B11 registered a Kd of 48 nM.
In turn, B12 displayed a Kd of 4300 nM.
B13 displayed a Kd of 1500 nM.
Molecule B14 showed a dissociation constant (Kd) of 19 nM. Against the preceding molecule, the Kd is about 79-fold lower.
In the case of B15 it was 44 nM; in that of B16, 550 nM.
Molecule B17 showed a Kd of 280 nM.
Regarding B18, the dissociation constant (Kd) came to 11 nM.
To B19 belongs 620 nM; to B20, 37 nM.
